According to the supplement of paper PMC9732359:
± gives the uncertainty stated by the source.

Assay: protein stability index of a GFP-peptide fusion (yeast GPS) (PSI 1-4); higher = more stable; sorted into four equal gates, so the index is relative within each strain
Outline: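 Sequencing reads from sorted gates were used to score each peptide. The library consisted of tiled 17-residue yeast protein peptides fused downstream of GFP on a Cherry-expressing plasmid, pooled and carried in yeast. Mid-log cultures in leucine-free medium were split into four equal gates by GFP/Cherry ratio, and each gate's plasmids were PCR-amplified and Illumina-sequenced. The protein stability index adds up, over all gates, the read frequency multiplied by the gate number.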

Sequence	protein stability index (doa10∆)	protein stability index (pdr5∆)	protein stability index (san1∆)	protein stability index (ubr1∆)
GLTQLYKKSTENESTNY [MED7]	3.08 ± 0.081	2.84 ± 0.081	2.56 ± 0.1	2.96 ± 0.05
GMCQLYFWHKIWRKVPG [SNU114]	1.97 ± 0.064	1.8 ± 0.057	2.12 ± 0.091	2.14 ± 0.048
GNESVKPQFENHVKQFY [MED11]	2.83 ± 0.19	2.57 ± 0.22		
GNITRGLAVGLALINYG [RPN2]	1.43 ± 0.17	1.22 ± 0.11	1.7 ± 0.15	1.51 ± 0.086
GNKNQFEPSISRSNFQG [LRP1]	2.76 ± 0.13	2.7 ± 0.16	2.74 ± 0.073	2.34 ± 0.21
GNLYSKVMNNSFKLCTL [YML103C/NUP188]	3.21 ± 0.21	2.8 ± 0.15	2.87 ± 0.14	3.07 ± 0.22
GNPGLPQYQYQRRYVIK [ITC1]	3.27 ± 0.2	3.04 ± 0.15	2.87 ± 0.079	3.34 ± 0.095
GNPLLYDGVERVSLQDI [QCR2]	1.73 ± 0.23	2.18 ± 0.17	2.03 ± 0.17	2.19 ± 0.17
GPDTKGQLEDFDSELIH [SMC3]	3.1 ± 0.21	3.52 ± 0.18		3.62 ± 0.22
GPKSGSTMGTPTVHNST [PGD1]	3.05 ± 0.078	3.04 ± 0.055	3.01 ± 0.061	3.12 ± 0.06
GPLAEEPIYGVQYKLLS [SNU114]	2.9 ± 0.11	2.6 ± 0.12	2.74 ± 0.08	3.17 ± 0.13
GPPQSLYGLNLTLRKAK [FAS1]	2.81 ± 0.064	2.15 ± 0.065	3.32 ± 0.06	2.42 ± 0.051
GPVRENDILVLMESERE [RPS28A]	2.61 ± 0.23	3.4 ± 0.083	3.26 ± 0.14	2.81 ± 0.092
GQIITLFSSRRLQAKRL [RMP1]	2.78 ± 0.078	2.76 ± 0.052	2.89 ± 0.051	2.65 ± 0.064
GQLVELYVPRKCSATNR [RPS21A]	2.46 ± 0.2	1.32 ± 0.19	1.13 ± 0.22	1.38 ± 0.069
GRGLWNPSYPGMMSTTG [YJL039C/NUP192]	2.99 ± 0.092	3.12 ± 0.053	3.14 ± 0.074	3.1 ± 0.097
GRGRGRGRPPKARNGLD [SNF2]	3.13 ± 0.084	3.17 ± 0.075	3.29 ± 0.047	3.33 ± 0.057
GRILKWLWPLCRGELKA [CDC53]	1.58 ± 0.095	1.64 ± 0.06	1.32 ± 0.11	1.13 ± 0.045
GRIPNVPVIVKARFVSK [RPL28]	2.32 ± 0.025	2.575 ± 0.024	2.599 ± 0.025	2.648 ± 0.021
GRNNGKKLKAVRIIKHT [RPS5]	2.06 ± 0.12	2.25 ± 0.08	1.79 ± 0.09	2.81 ± 0.082
GRPRGRPKKVKLEGSEN [SNF2]	3.41 ± 0.19	3.21 ± 0.21	3.27 ± 0.098	3.65 ± 0.17
GSAEFNVKYRAVVFKPF [RPB7]	2.81 ± 0.14	1.85 ± 0.11	2.46 ± 0.1	2.85 ± 0.17
GSCTGKFGYILCVLDYD [RPB7]	2.3 ± 0.084	2.54 ± 0.061	2.38 ± 0.067	2.31 ± 0.055
GSFKRVKPQYDEIHIPA [BRR2]	2.73 ± 0.1	3.07 ± 0.14	2.33 ± 0.096	2.46 ± 0.11
GSGAPVYLTAVLEYLAA [HTA1]	1.64 ± 0.076	1.7 ± 0.077	1.55 ± 0.12	1.75 ± 0.045
GSHLSETEFPPFREFLQ [ECM29]	3.12 ± 0.063	3.11 ± 0.071	3.09 ± 0.041	2.87 ± 0.058
GSIAMARVLFDDMVEYE [CYT1]	3.51 ± 0.18	3.33 ± 0.12	3.04 ± 0.1	3.35 ± 0.097

Sequence	protein stability index (doa10∆)	protein stability index (pdr5∆)	protein stability index (san1∆)	protein stability index (ubr1∆)
GSLALLKLSMADYNGAL [POP4]	2.33 ± 0.046	2.67 ± 0.058	2.48 ± 0.054	2.38 ± 0.037
GSSDEDLKSLNVRDDMK [SSN2]	3.29 ± 0.13	3.58 ± 0.11	3.38 ± 0.078	3.2 ± 0.11
GSVELSTGDYTFTIQLL [YML103C/NUP188]	2.05 ± 0.084	2.41 ± 0.072	1.89 ± 0.11	2.17 ± 0.051
GSYLCTSSTPSPIKNGS [YOR098C/NUP1]	2.95 ± 0.054	2.94 ± 0.054	2.78 ± 0.053	2.97 ± 0.04
GTGNNSAVKRLLHVAVS [RPN2]	2.19 ± 0.24	2.51 ± 0.25		1.58 ± 0.15
GTQLATLKNRGLPLGIA [YGR119C/NUP57]	2.04 ± 0.067	2.29 ± 0.059	2.57 ± 0.1	2.23 ± 0.031
GVAASQGSMSERPPYIL [SIR2]	2.75 ± 0.11	3.08 ± 0.089	2.72 ± 0.097	3.16 ± 0.085
GVGILYKGMASNDERIV [BRR2]	2.44 ± 0.098	2.23 ± 0.081	1.79 ± 0.11	3.15 ± 0.09
GVMLWKEFDETIFNLPK [FAS1]	1.75 ± 0.073	1.56 ± 0.12	1.15 ± 0.21	2.81 ± 0.2
GVMSLLQKSSKSMITSE [YAR002W/NUP60]	2.46 ± 0.06	2.61 ± 0.062	2.19 ± 0.076	2.95 ± 0.063
GVPNYLVQLEPHLFVNG [SSN2]	1.96 ± 0.069	1.97 ± 0.063	1.94 ± 0.084	1.96 ± 0.12
GVRDINCVNDVLEFCKD [POP1]	2.93 ± 0.18	2.82 ± 0.18	2.36 ± 0.24	3.09 ± 0.26
GVRPFGVSLLIAGHDEF [PRE8]	2.46 ± 0.1	1.95 ± 0.096	1.94 ± 0.2	1.93 ± 0.075
GVSIENENKVIIELPNE [SRB4]	2.77 ± 0.1	3.02 ± 0.1	3.06 ± 0.055	2.6 ± 0.06
GVSLLIAGHDEFNGFSL [PRE8]	1.99 ± 0.18	2.18 ± 0.1	1.97 ± 0.1	2.07 ± 0.093
GVSSPGFSPTSPTYSPT [RPO21]	2.82 ± 0.069	3 ± 0.058	2.82 ± 0.057	3.05 ± 0.055
GWKYEDVVAKLEAKRKV [RPL16A]	2.78 ± 0.082	1.88 ± 0.063	1.93 ± 0.13	1.88 ± 0.046
GWLGALTMANLPSWSLG [ARP7]	3.07 ± 0.078	3.08 ± 0.062	2.68 ± 0.083	2.92 ± 0.057
GWPKLQLGPQTPAFNTA [ECM29]	1.43 ± 0.21	1.48 ± 0.16	1.42 ± 0.17	1.68 ± 0.2
GYALRDVQARRQFVSNV [RPP1]		1.99 ± 0.16		
GYDPALLNILSGLPTCD [RPN2]	2.79 ± 0.083	2.91 ± 0.11	2.39 ± 0.078	2.55 ± 0.1
GYDPIVSTRAIDLLWKG [PRP28]	2.12 ± 0.18	2.03 ± 0.091	1.47 ± 0.11	2.6 ± 0.079
GYFGKVGMRYFHKQQAH [RPL28]	2.6 ± 0.14	2.76 ± 0.095	2.89 ± 0.12	2.84 ± 0.05
GYLDDSEILIISSLMFD [IRR1]	2.79 ± 0.071	2.91 ± 0.06	2.89 ± 0.07	2.75 ± 0.046
GYSGYGNGITNTTTRVI [SNF5]	3.64 ± 0.2	3.72 ± 0.24	2.76 ± 0.18	
GYYLSLGSGSLAAMAVL [PUP1]		1.98 ± 0.29		
HAADSQNNKPSFVFGQA [YLR335W/NUP2]	2.91 ± 0.11	2.95 ± 0.092	2.58 ± 0.057	3.15 ± 0.093
